Source: patent US20040048377A1 (published 2004)

B1: mouse Grg4 (other, UniProt Q62441 1-773, looked up)
chain: MIRDLSKMYPQTRHPAPHQPAQPFKFTISESCDRIKEEFQFLQAQYHSLKLECEKLASEKTEMQRHYVMYYEMSYGLNIEMHKQAEIVKRLNAICAQVIPFLSQEHQQQVVQAVERAKQVTMAELNAIIGQQLQAQHLSHGHGLPVPLTPHPSGLQPPAIPPIGSSAGLLALSSALGGQSHLPIKDEKKHHDNDHQRDRDSIKSSSVSPSASFRGSEKHRNSTDYSSESKKQKTEEKEIAARYDSDGEKSDDNLVVDVSNEDPSSPRGSPAHSPRENGLDKTRLLKKDAPISPASVASSSSTPSSKSKELSLNEKSTTPVSKSNTPTPRTDAPTPGSNSTPGLRPVPGKPPGVDPLASSLRTPMAVPCPYPTPFGIVPHAGMNGELTSPGAAYAGLHNISPQMSAAAAAAAAAAAYGRSPVVGFDPHHHMRVPAIPPNLTGIPGGKPAYSFHVSADGQMQPVPFPPDALIGPGIPRHARQINTLNHGEVVCAVTISNPTRHVYTGGKGCVKVWDISHPGNKSPVSQLDCLNRDNYIRSCRLLPDGRTLIVGGEASTLSIWDLAAPTPRIKAELTSSAPACYALAISPDSKVCFSCCSDGNIAVWDLHNQTLVRQFQGHTDGASCIDISNDGTKLWTGGLDNTVRSWDLREGRQLQQHDFTSQIFSLGYCPTGEWLAVGMENSNVEVLHVTKPDKYQLHLHESCVLSLKFAHCGKWFVSTGKDNLLNAWRTPYGASIFQSKESSSVLSCDISVDDKYIVTGSGDKKATVYEVIY
notes: 35S-labelled, made in TNT rabbit reticulocyte lysate for the immuno-precipitation; expressed from a vector in COS-7 cells in the reporter assays; also called mGrg4
B2: Nkx6.1 (full-length, rNkx6.1) (other, rat, UniProt O35762 1-365, looked up)
chain: MLAVGAMEGPRQSAFLLSSPPLAALHSMAEMKTPLYPAAYPPLPTGPPSSSSSSSSSSSPSPPLGAHNPGGLKPPAAGGLSSLGSPPQQLSAATPHGINDILSRPSMPVASGAALPSASPSGSSSSSSSSASATSASAAAAAAAAAAAAAASSPAGLLAGLPRFSSLSPPPPPPGLYFSPSAAAVAAVGRYPKPLAELPGRTPIFWPGVMQSPPWRDARLACTPHQGSILLDKDGKRKHTRPTFSGQQIFALEKTFEQTKYLAGPERARLAYSLGMTESQVKVWFQNRRTKWRKKHAAEMATAKKKQDSETERLKGTSENEEDDDDYNKPLDPNSDDEKITQLLKKHKSSGGSLLLHASEAEGSS
notes: mature; Full-length protein made in TNT rabbit reticulocyte lysate; 35S-labelled in the GST co-precipitation, immobilised on antibody-proteinA-sepharose in the immuno-precipitation

Experiments:
[1] = target: T1, Nkx2.2ΔTN (Nkx2.2 with the TN domain deleted, Δaa 2-26) (chick); assay: immuno-precipitation, 35S-labelled Grg4, Nkx protein on antibody-proteinA-sepharose
T1 construct: range 1-1;range 27-C-terminus; Deletion construct, immobilised on antibody-proteinA-sepharose in the immuno-precipitation; also called cNkx2.2^?TN; NKx2.2^?TN
Protocol: (§1) Immuno-precipitation (IP) assays using rabbit Nkx2.2 (Ericson et al., 1997) and Nkx6.1 antibodies (Jensen et al., 1996) were performed as described by Current protocols 2nd ed. ³⁵S-labelled mGrg4 was synthesized using the TNT coupled rabbit reticulocyte lysate. Electric mobility shift assays were performed as described (Jorgensen et al., 1999). Briefly, the isolated homeodomains of Nkx6.1, Nkx6.2, Nkx2.2 and Nkx2.9HD were synthesized using the TNT coupled rabbit reticulocyte lysate and tested for their binding specificity in vitro using ³²P-labelled double stranded DNA oligonucleotides containing defined Nkx6.1 (Jorgensen et al., 1999) or Nkx2.1 binding sites (Damante et al., 1996).
(§2) An immuno-precipitation assay was then used to test if mammalian Gro/TLE family members could also bind to Nkx proteins, and if the TN domain is required for this interaction. […] Carboxy-terminal directed antibodies that recognise both full-length proteins as well as truncated variants lacking the TN domain were used (Ericson et al., 1997; Jensen et al., 1996). […]
(§3) Deletion of the TN domain in Nkx2.2 and Nkx6.1 reduced the interaction with Grg4 (9-fold for Nkx2.2ATN and 5-fold for Nkx6.1ΔTN, compared to the full-length proteins). […] No significant interaction was detected between Grg4 and antibody-proteinA-sepharose complexes.

mouse Grg4 = target: B1; assay: as above
Protocol: as §1, §2, §3

Row | fold reduction of the interaction with Grg4 compared to the full-length protein [1] [fold] | binding result (mouse Grg4) | Binder
1 | 9 | – | B1
2 | – | binds | B2
